Results taken from US20100077498A1 (published 2010).
Where “and” joins values, the source holds several entries; their conditions need not be identical. Identical values can stand only once. One block for each binder: values may come before it.

How the values were obtained:
[1] = target: T1, fusion protein of human Fc and the human GFRalpha1 extracellular domain (human, UniProt P56159 25-429, limits assumed); test: ELISA: GFRα1:Fc captured by mouse anti-human Fc, detection with goat anti-GDNF and rabbit anti-goat-AP; given as ED50
T1 construct: extracellular domain; Captured on ELISA wells by a mouse anti-human Fc antibody; The order of the parts follows the printed name GFRα1:Fc; also called GFRα1:Fc fusion protein; GFRα1 ECD; not shown: human Fc
T1 sequence (looked up): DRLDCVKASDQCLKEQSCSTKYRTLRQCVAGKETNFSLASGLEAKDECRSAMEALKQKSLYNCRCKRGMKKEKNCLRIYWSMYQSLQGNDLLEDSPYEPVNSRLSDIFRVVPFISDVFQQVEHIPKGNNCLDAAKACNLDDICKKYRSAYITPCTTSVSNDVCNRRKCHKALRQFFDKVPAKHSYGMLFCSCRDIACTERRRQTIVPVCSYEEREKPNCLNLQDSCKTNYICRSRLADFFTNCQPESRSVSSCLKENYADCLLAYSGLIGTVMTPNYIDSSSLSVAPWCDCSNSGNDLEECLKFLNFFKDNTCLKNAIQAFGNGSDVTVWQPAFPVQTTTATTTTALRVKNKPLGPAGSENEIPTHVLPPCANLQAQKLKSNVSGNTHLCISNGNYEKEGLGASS
Text: FIG. 10. (A) Outline of GFRα1 receptor binding assay. The GFRα1:Fc fusion protein is captured by a mouse anti-human (MAH) Fc antibody. The GDNF, or cTfRMAb-GDNF fusion protein, binds to the GFRα1, and this binding is detected with a goat anti-GDNF antibody and a rabbit anti-goat (RAG) antibody conjugated to alkaline phosphatase (AP). (B) Binding of either GDNF (top panel) or the cTfRMAb-GDNF fusion protein (bottom panel) to the GFRα1 extracellular domain (ECD) is saturable.
The cTfRMAb-GDNF fusion protein is a bi-functional molecule that binds 2 receptors (FIG. 8): (i) the brain capillary endothelial mouse TfR to cause RMT across the mouse BBB in vivo, and (ii) the GFRα1 on neurons, to cause therapeutic actions in brain behind the BBB. The bi-functionality of the cTfRMAb-GDNF fusion protein was tested with binding assays for both the human GFRα1 and the mouse TfR. A mouse anti-human Fc (MAH-Fc) is plated in ELISA wells and captures a fusion protein of human Fc and the human GFRα1 extracellular domain (ECD). The cTfRMAb-GDNF fusion protein, or mature human GDNF, is then added, and these molecules bind to the GFRα1 ECD in proportion to the affinity for this receptor. The binding of the GDNF or the cTfRMAb-GDNF fusion protein is then detected with a goat anti-GDNF antibody, and a rabbit anti-goat (RAG) IgG-alkaline phosphatase (AP) conjugate (FIG. 10A).

[2] = target: T2, mouse transferrin receptor (mouse, UniProt Q62351 1-763); test: radio-receptor assay on mouse fibroblasts, 4 C, displacement of [125I]-8D3 by unlabeled cTfRMAb, non-linear regression
T2 construct: whole, on cells; Mouse fibroblasts were the source of the mouse TfR in the radio-receptor assay; also called mouse TfR; TfR
T2 sequence (Q62351 whole entry): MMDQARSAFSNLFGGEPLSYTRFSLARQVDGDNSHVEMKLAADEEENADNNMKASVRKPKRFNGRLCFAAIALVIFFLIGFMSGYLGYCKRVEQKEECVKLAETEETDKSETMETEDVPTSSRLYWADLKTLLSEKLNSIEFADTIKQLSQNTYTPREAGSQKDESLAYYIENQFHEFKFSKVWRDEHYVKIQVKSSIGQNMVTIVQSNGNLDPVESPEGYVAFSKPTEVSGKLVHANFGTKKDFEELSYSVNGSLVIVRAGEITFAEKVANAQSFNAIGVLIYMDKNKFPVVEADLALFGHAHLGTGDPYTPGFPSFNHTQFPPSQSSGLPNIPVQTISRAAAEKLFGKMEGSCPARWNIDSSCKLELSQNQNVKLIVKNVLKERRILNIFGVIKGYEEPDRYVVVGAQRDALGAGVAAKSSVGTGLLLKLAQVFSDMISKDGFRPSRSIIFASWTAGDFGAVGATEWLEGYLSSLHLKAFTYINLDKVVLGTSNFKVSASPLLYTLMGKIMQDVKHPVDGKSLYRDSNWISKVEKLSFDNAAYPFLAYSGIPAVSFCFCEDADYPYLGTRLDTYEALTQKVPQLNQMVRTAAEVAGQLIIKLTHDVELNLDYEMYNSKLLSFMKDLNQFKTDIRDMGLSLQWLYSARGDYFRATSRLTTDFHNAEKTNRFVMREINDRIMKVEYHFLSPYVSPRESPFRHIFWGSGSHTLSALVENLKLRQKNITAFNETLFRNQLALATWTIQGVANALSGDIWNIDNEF
Procedure: (§1) Mouse TfR radio-receptor assay. Mouse fibroblasts were plated in 24-well cluster dishes (100,000 cells/well) 24 hours before the radio-receptor assay (RRA) of TfRMAb binding to the mouse TfR. The medium was aspirated, the cells washed with phosphate buffered saline (PBS), and 500 μL was added to each well containing 0.15 μCi/mL of [¹²⁵I]-labeled rat 8D3 MAb, and 0.3 to 100 nM concentrations of either unlabeled rat 8D3 MAb or unlabeled cTfRMAb. Following incubation at 4 C for 120 min, the medium was aspirated, the plates washed with cold PBS containing 1% bovine serum albumin (BSA), and the monolayer was lysed with 0.2 mL/well of 1 N NaOH. An aliquot was removed for protein measurement using the bicinchoninic acid (BCA) assay, and the radioactivity in the lysate was determined with a Beckmann gamma counter. The % bound/mg protein was computed from the radioactivity in the cell lysate and the total radioactivity in the medium. The 8D3 self-inhibition binding data were fit by non-linear regression analysis yield either the KD of 8D3 self-inhibition in the binding assay, or the KI of cross-inhibition by the chimeric TfRMAb or the cTfRMAb fusion protein.

[3] = target: T2, mouse transferrin receptor; test: radio-receptor assay on mouse fibroblasts, 4 C, self-inhibition of [125I]-8D3 by unlabeled 8D3, non-linear regression
Procedure: as §1

[4] = target: T2, mouse transferrin receptor; test: radio-receptor assay on mouse fibroblasts, self-inhibition of [125I]-8D3, non-linear regression
Procedure: as §1
(§2) Mouse fibroblasts were used as the source of the mouse TfR, and the ¹²⁵I-labeled rat 8D3 TfRMAb was used as the binding ligand. […]

[5] = target: T2, mouse transferrin receptor; test: radio-receptor assay on mouse fibroblasts, displacement of [125I]-8D3 by unlabeled cTfRMAb-GDNF, non-linear regression
Procedure: as §1, §2

EC50 [1]: 1.03 nM
B1: human mature 134 amino acid glial derived neurotrophic factor (ligand, UniProt P39905 78-211, looked up)
chain: SPDKQMAVLPRRERNRQAAAANPENSRGKGRRGQRGKNRGCVLTAIHLNVTDLGLGYETKEELIFRYCSGSCDAAETTYDKILKNLSRNRRLVSDKVGQACCRPIAFDDDLSFLDDNLVYHILRKHSAKRCGCI
notes: mature; also called GDNF; mature human GDNF

Ki [2]: 2.6 nM
B2: chimeric monoclonal antibody against the mouse transferrin receptor (rat 8D3 variable regions, mouse IgG1/kappa constant regions) (antibody, V domains shown)
VH: EVQLVESGGGLVQPGNSLTLSCVASGFTFSNYGMHWIRQAPKKGLEWIAMIYYDSSKMNYADTVKGRFTISRDNSKNTLYLEMNSLRSEDTAMYYCAVPTSHYVVDVWGQGVSVTVSS
VL: DIQMTQSPASLSASLEEIVTITCQASQDIGNWLAWYQQKPGKSPQLLIYGATSLADGVPSRFSGSRSGTQFSLKISRVQVEDIGIYYCLQAYNTPWTFGGGTKLELKR
notes: also called chimeric TfRMAb; cTfRMAb

Kd [3]: 2.3 nM
Kd [4]: 5 nM and 3.2 nM
B3: rat 8D3 monoclonal antibody against the mouse transferrin receptor, hybridoma generated (antibody, V domains shown)
VH: EVQLVESGGGLVQPGNSLTLSCVASGFTFSNYGMHWIRQAPKKGLEWIAMIYYDSSKMNYADTVKGRFTISRDNSKNTLYLEMNSLRSEDTAMYYCAVPTSHYVVDVWGQGVSVTVSS
VL: DIQMTQSPASLSASLEEIVTITCQASQDIGNWLAWYQQKPGKSPQLLIYGATSLADGVPSRFSGSRSGTQFSLKISRVQVEDIGIYYCLQAYNTPWTFGGGTKLELK
modifications: In part of the assays the antibody carried 125I (radio-iodinated tyrosines); the letters do not show this.
notes: Rat hybridoma antibody purified on protein G; also called 8D3 MAb; 8D3 TfRMAb

EC50 [1]: 2.55 nM
Ki [5]: 3 nM
B4: cTfRMAb-GDNF fusion protein (human mature GDNF fused to the carboxyl terminus of the heavy chain of the chimeric MAb against the mouse TfR) (other)
heavy: EVQLVESGGGLVQPGNSLTLSCVASGFTFSNYGMHWIRQAPKKGLEWIAMIYYDSSKMNYADTVKGRFTISRDNSKNTLYLEMNSLRSEDTAMYYCAVPTSHYVVDVWGQGVSVTVSSAKTTPPSVYPLAPGSAAQTNSMVTLGCLVKGYFPEPVTVTWNSGSLSSGVHTFPAVLQSDLYTLSSSVTVPSSTWPSETVTCNVAHPASSTKVDKKIVPRDCGCKPCICTVPEVSSVFIFPPKPKDVLTITLTPKVTCVVVDISKDDPEVQFSWFVDDVEVHTAQTQPREEQFNSTFRSVSELPIMHQDWLNGKEFKCRVNSAAFPAPIEKTISKTKGRPKAPQVYTIPPPKEQMAKDKVSLTCMITDFFPEDITVEWQWNGQPAENYKNTQPIMDTDGSYFVYSKLNVQKSNWEAGNTFTCSVLHEGLHNHHTEKSLSHSPGSSSSPDKQMAVLPRRERNRQAAAANPENSRGKGRRGQRGKNRGCVLTAIHLNVTDLGLGYETKEELIFRYCSGSCDAAETTYDKILKNLSRNRRLVSDKVGQACCRPIAFDDDLSFLDDNLVYHILRKHSAKRCGCI
light: DIQMTQSPASLSASLEEIVTITCQASQDIGNWLAWYQQKPGKSPQLLIYGATSLADGVPSRFSGSRSGTQFSLKISRVQVEDIGIYYCLQAYNTPWTFGGGTKLELKRADAAPTVSIFPPSSEQLTSGGASVVCFLNNFYPKDINVKWKIDGSERQNGVLNSWTDQDSKDSTYSMSSTLTLTKDEYERHNSYTCEATHKTSTSPIVKSFNRGEC
notes: Hetero-tetramer of 2 light chains and 2 fusion heavy chains; expressed in COS cells, purified on protein G; also called cTrFMAb-GDNF
